In paper PMC2762042:

Target: hnRNP G-T RRM (Homo sapiens) (UniProt O75526)
Assay: EMSA
Details: EMSA with radio-labelled T7 transcripts and 30 or 100 ng RRM protein; buffer, salt, pH and temperature not given in material

Sequence of hnRNP G-T RRM (Homo sapiens) (O75526 8-86): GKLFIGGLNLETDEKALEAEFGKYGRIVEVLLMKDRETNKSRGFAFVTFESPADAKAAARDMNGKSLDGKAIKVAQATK

Sequence: AGGUAUUGGGCUUUGGCUGAGGGCUUUUUGUUGUUGUUGUUGUUGUU [ABwt]
- Kd: 1.7 nM
